The results in this text go back to article PMC12586476, “Molecular mechanism and structural models of protein-mediated copper transfer to the Arabidopsis thaliana ethylene receptor ETR1 at the ER membrane” (Scientific Reports, 2025).

To fix the notation:
T1: ETR1_GAF^1–316 (truncation of the Arabidopsis thaliana ethylene receptor ETR1 containing the transmembrane … (Arabidopsis thaliana, UniProt P49333 1-316, AlexaFluor 488-NHS (amine-reactive dye) label))
T1 construct: Membrane protein kept in Fos-Choline-14; source: E. coli C41(DE3)∆ompF∆acrAB, membranes solubilized in Fos-Choline-14, purified (Ni-NTA IMAC)
T1 sequence (looked up): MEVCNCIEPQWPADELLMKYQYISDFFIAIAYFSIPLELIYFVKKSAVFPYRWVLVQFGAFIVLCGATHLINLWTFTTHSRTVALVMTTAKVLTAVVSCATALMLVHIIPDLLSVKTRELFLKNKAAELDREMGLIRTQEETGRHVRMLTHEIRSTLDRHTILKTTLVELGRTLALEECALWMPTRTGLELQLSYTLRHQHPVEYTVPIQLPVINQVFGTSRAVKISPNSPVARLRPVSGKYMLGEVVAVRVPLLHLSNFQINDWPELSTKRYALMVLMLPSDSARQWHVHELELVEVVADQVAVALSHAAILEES

T2: Arabidopsis copper chaperone CCH (Arabidopsis thaliana, UniProt O82089 1-121, AlexaFluor 488 label)
T2 construct: Copper chaperone CCH, Arabidopsis thaliana
T2 sequence (looked up): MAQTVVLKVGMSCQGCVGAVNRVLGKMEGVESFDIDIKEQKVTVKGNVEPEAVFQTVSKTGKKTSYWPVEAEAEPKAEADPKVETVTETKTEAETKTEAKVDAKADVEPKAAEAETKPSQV

B1: RAN1 metal binding domain 2 (MBD2) (domain or fragment, Arabidopsis thaliana, UniProt Q9S7J8 132-207, looked up)
chain: TLVGQFTIGGMTCAACVNSVEGILRDLPGVKRAVVALSTSLGEVEYDPNVINKDDIVNAIEDAGFEGSLVQSNQQD
notes: Copper-transporting P-type ATPase RAN1 (HMA7), Arabidopsis thaliana, MBD2, AA 132-207; Cloned into pETEV16b (pET-16b derivative with a TEV site); no tag cleavage is described; also called HMA7 MBD2; source: E. coli BL21 Gold (DE3), purified (Ni-NTA IMAC, SEC)
B2: RAN1 degenerate metal binding domain 3 (MBD3) (domain or fragment, Arabidopsis thaliana, UniProt Q9S7J8 205-283, looked up)
chain: QQDKLVLRVDGILNELDAQVLEGILTRLNGVRQFRLDRISGELEVVFDPEVVSSRSLVDGIEEDGFGKFKLRVMSPYER
notes: Copper-transporting P-type ATPase RAN1 (HMA7), Arabidopsis thaliana, MBD3, AA 205-283; Cloned into pETEV16b; also called HMA7 MBD3; source: E. coli BL21 Gold (DE3), purified (Ni-NTA IMAC, SEC); not shown: His tag (deca-histidine), N-terminal, kept
B3: RAN1 metal binding domain 1 (MBD1) (domain or fragment, Arabidopsis thaliana, UniProt Q9S7J8 55-130, looked up)
chain: LRKIQVGVTGMTCAACSNSVEAALMNVNGVFKASVALLQNRADVVFDPNLVKEEDIKEAIEDAGFEAEILAEEQTQ
notes: Copper-transporting P-type ATPase RAN1 (HMA7), Arabidopsis thaliana, MBD1, AA 55-130; Cloned into pETEV16b (pET-16b derivative with a TEV site); no tag cleavage is described; also called HMA7 MBD1; source: E. coli BL21 Gold (DE3), purified (Ni-NTA IMAC, SEC)

In one test the target is T1, ETR1_GAF^1–316 (truncation of the …). In words: MST; AlexaFluor488-labelled ETR1_GAF 50 nM, MBDs titrated 100 µM to 24.4 nM; 300 mM NaCl, 50 mM HEPES pH 7.2 with Fos-Choline-14 and glycerol; room temperature; thermophoresis with T-jump; one-site binding model; apparent KD. The settings on record: both partners purified.
B1: the Kd was determined as 22.3 ± 12.1 µM.

Take B2: the Kd turned out to be 8.3 ± 6.6 µM.

For the molecule B3, the Kd amounted to 13.3 ± 4.4 µM.

A further test addresses Arabidopsis copper transport protein ATX1 (Arabidopsis thaliana). In words: MST; AlexaFluor488-labelled ATX1 or CCH 100 nM, MBDs titrated (MBD1 300 µM to 0.19 nM, MBD2 100 µM to 0.19 nM, MBD3 100 µM to 0.06 nM); 300 mM NaCl, 50 mM HEPES pH 7.2 with Tween20 and glycerol; room temperature; initial fluorescence analysed; one-site binding model; apparent KD.
Details: not given
Turning to B1, the Kd was 0.239 µM.

In the case of B2, the Kd is 0.105 µM.

Regarding B3, the Kd stood at 0.155 µM.

The next test addresses T2, Arabidopsis copper chaperone CCH. The description is as above. The settings on record: both partners purified.
As to B1, the Kd came to 2.28 ± 0.99 µM.

With B2, the Kd turned out to be 0.0885 ± 0.0782 µM.

With B3, the Kd came out at 3.16 ± 0.684 µM.
